Source: the DeepSol protein solubility set

Test: soluble on expression in E. coli; label from the status in PepcDB or PDB records

Row | Sequence | soluble on expression in E. coli
1 | MNKLYIDSFVEKKLTAGVQLLDEKDFSNIKEKNQLVQLVTKSNRPIGTAYISKQNKGIGWYLGPEKIDLSISYFVSLFSVAKAKRQDFAQSDETNAYRLFNQEGDGFGGVTIDLYKDFAVFSWYNAFVYDKKEMIMEAFQQVFPEVKGAYEKCRFKGPDTETAHLYGELAQETFSILENGIAYQVFLNEGLMTGIFLDQHDVRRALVDGLAMGKSLLNLFSYTAAFSVAAAMGGAIETTSVDLAKRSRELSLAHFEHNQLNLASHHFVVMDVFEYFKYAKRKKLIFDVIVIDPPSFARNKKQTFSVSRDYHKLITEALDILSPKGTIIASTNAANMTVSQFKKQIIKGFGSRRPESMTLQQLPSDFTINKADERSNYLKVFTIKVRE | not soluble
2 | MGSDKIHHHHHHMKVLDVIKQIQQAIVYIEDRLLEPFNLQELSDYVGLSPYHLDQSFKMIVGQSPEEYARARKMTIAANDVVNGASRLMDVAKKYRYANSNDFANDFSDFHGISPIQATTKKDELKIQQRLYIKLSTTENAPYTYRLQETDDISLVGYSRFIPTEQLSNPFNIPDFLEDLLVDGYIKELKRYNDTSPYELFVVSCPLEQGLEIFVGVPSERYPSHLESRFLPGRHYALFNLQGEIDYATNEAWYYIESSLQLTLPYERNSLYVEIYPLDISFNDPFTKIQLWLPIKQEIYDLDEGYQN | not soluble
3 | MGSDKIHHHHHHMKMKGIESLKEIFKYGAFSLPVANYLLCEGNIPGDCKRILDVLKLAWKGNFKEAIRRADKAVENSRSETAKYFLLANKLAFLKYTGKTDVNLYRYLKRNLPKMSKSIRDTVIVTLINFEASGIKPLRKVRVWKNDYRKSTLSFLYLSLARREADSGRLSEAVHDYIQAYRLSREVPHPTCIVSSLNDLAWDIREKHPKLAHALSQGAVFWLGYYREEPGNLFGALDTLFVVEKDMDSPSIHSTAHIIVSLPVPEDYLSLLKKAKKFVLDYTGSTYPNTSQLRRYVEKVAWKGKTLSSKGISDILKGKTKMIRADTIRKLLTSGVDTGAPFPVWNEWIKMEIERKYRESSEKLKELPFHQRQILFLTTYMALLDREFLSRKEKLKKAYTLLEDIESFADFMAKDHRTMEFVVSMVKAHPFVEGRKEAVKRALARMKRKRLERFVLRYIEMKESDRKLLDRFLRNYGRYDGVRFGIRLKGPEVVREFAKKYSLKVQPLFAAFWCEEDGRVRRRLERVLKHMVLYNLIEIAILFVMVEK | not soluble
4 | MSLKRILLSSDRSGSGKTLITSAIMRALSKKYKVRGFKAGPDFIDPGYHKIATGFPSINLDLWMMGKNNVKRSLAKYGKEFDIGIIEGVMGLYDGVDTLYSTYELAKVTKTPIILIINCSNIGSTVGAIVKGLKYYRSDVSIRGVIFNKIASETHYNYCRNAVEDVEVLGYVPFDKNLEIKSRHLGLVTVEDNREVQNLIRYASELVEKYVDLDKIYEMASDEDLEIDLPEDNESNGVKRKMAIAYDPAFSFYYQENLDILKNKYELEFFSPLNNEYVEDAEAIYIGGGYPELHLNELEKSTRTKKWLKNMSYAGVKIYAECGGLMYLSKNLIDENNKNHSMTGIFDIDIKTKDKLTIGYTELEAVKENFIVNKNNVVRGHEFHVSKPISVNEKEFVFKVRIGKGIINKLDGVKSNNTVASYSHLHFSNFQLRIVFEGHHHHHH | not soluble
5 | MGSDKIHHHHHHAEDMVKPIENDKDAPGTVQDVKTESLPGAVKFTYTLPSDPDLLYVLAKYTNKTGKVMEFRSSFYTNSVTVEGFGDTDTYKVELYTVDRSENRSQPQIVEVVPLTPPILSCYESLSMVSDFGGMTFEMDNKFKSDLAIYVCTPDELGDMVLAETFYSAREEIVYSVRGYDAVPRRFGIFLQDKYGNETDTLFTELTPIYERELDKTKFREMYLQNDSRVDSYDGKMEYVWNGRISKDGDSGGVGLHTGTGTKDGPAVFTFDLGVLAKLSRFALWAIQDEKHFYNDMSPRRYEVWGCATEPNPDGSWDQWVKLLDMENVKPSGSPIGILTEDDIEAAKIGDQANVPLDMPRVRYIRIKCLKNWSNNYNICFTELTFWGNDNEE | not soluble
6 | GPGSMEAVGTADRPSLEFCPQAQNSPQTRPLLCVRRPPETVRRRHDRNPPRDSTQTADAVPWDSSSSPPHASCTAGGYKTSRGARQMALPFLFPPPGVGQRSFVADRVHRRQHCGLAQPLPQPWLRAASRSILLGDASSALPPLDPPAARPSVCRQRLALHGSGG | not soluble
7 | LVFDEEGNSSWIATDTVKVAASRPVELNPFYIDTVYEVSGKKIAYMVYNEFSTGPNNQATDTEYREQMKQIFARFKGQSPDAFILDLRYNPGGYLSCATDLGSYLAPAADLGKVFCTTLYNDISDPQKIDFPLNTGLASENLNLSKLYVLTSKFTASASEAVINCLRPYIGTENVVVIGETTVGKNVAMEPYQDERYNFILWPVVAYVLNSAGQANYVNGITPDFTLSER | not soluble
8 | MLRFDHLVHAVHGTPEEAAKQMQELGFHTVLGGEHTNWGTWNSLSYFDLSYIEFLAVQYEEKAKEAENPLVQETVVKLQNGEGMLQIAIRTDAIEELAVNFNKYGLHTIGPFEGKRMRKDGRLLEWKMLFVKQEENGPKLPFFIQWNETDEERRNDLRNSGTITEHKNKVQQIETIHYAVKNVRETVRKWKEVMELSTSSVVKIEKWNAECQSVVFGDIHVQFCEPIGEGLVLEHLNKNGENPFAVEFKGGNKREHEVLGSLYIY | not soluble
9 | MGSDKIHHHHHHMRSPVPRVAAIHDLSGFGRTSLTVAIPVLSAMGIQVCPMPTAMLSTHTSGFKGFSFIDLTAEMRRFFDHWKSLNIRFDAIYSGFLGSPDQVAIVAQCIDMFRTPDGFAVVDPVLGDNGELEPTMDMEMVHRMRWLVSKADIITPNFTEAALLLDEPYREHIDQPTLKDWLRRLTAMGPHVAVVTSVPVEGSRTTTSVVAYNRPHDRFWKVDCQYIPAHYPGTGDTFASVLTGSILQGDSLPIAIERAVQFVTMGIRATFGHNSPSREGILLERVLDTLRAPVTMSSYELLEE | not soluble
10 | MEDFWEDWDLAFEDVFPKSLKEALEGIKEIPTYGERGASRFMYNLLKLEKEKRKEIIEKVLEAVEVLRPCRECFLITDREVCPICSDEKRSKKFICVVEESQDAYAIEKLERYKGVYHVLQGHIAPLEGISAEDLTIDALMERIKKYQPKEVILATNPNVEGEATANYIAGLIRRKFPAVKITRTAYGFQFGSLIEFVDEYSLEKSMENRK | soluble
11 | MITVPHSRKVELDEIDRAILRLLQEDGRMSYSEISRRINVPESTVRARVNRLVKEGVIRKFAALINPFKAGYEIVAFIAVDAEPAKVKQVVEELAKFPEVDVLGIVTGAHDIFMQVTVKDLQELERFILEKMAKIDGIKSTETSILTSVKKWGYARVF | soluble
12 | AETSSATTAQQMPSLAPMLEKVMPSVVSINVEGSTTVNTPRMPRNFQQFFGDDSPFCQEGSPFQSSPFCQGGQGGNGGGQQQKFMALGSGVIIDADKGYVVTNNHVVDNATVIKVQLSDGRKFDAKMVGKDPRSDIALIQIQNPKNLTAIKMADSDALRVGDYTVAIGNPFGLGETVTSGIVSALGRSGLNAENYENFIQTDAAINRGNSGGALVNLNGELIGINTAILAPDGGNIGIGFAIPSNMVKNLTSQMVEYGQVKRGELGIMGTELNSELAKAMKVDAQRGAFVSQVLPNSSAAKAGIKAGDVITSLNGKPISSFAALRAQVGTMPVGSKLTLGLLRDGKQVNVNLELQQSSQNQVDSSSIFNGIEGAEMSNKGKDQGVVVNNVKTGTPAAQIGLKKGDVIIGANQQAVKNIAELRKVLDSKPSVLALNIQRGDSTIYLLMQ | soluble
13 | MSLEDVIEKLRELNEPVPVPLELPEEELLVEIEEELLIGIPAEFREFLLLVSDVVYGRLEPVTVTDPHSHTYLPEVAATAWDLGVPRELIPLCEDDGSYYCVAEDGEVVLWADGDLTDESWDSVWVWARDVWLESEGHHHHHH | soluble
14 | MHIKPIIQGVVARSAHPYGCEQAVLQQIQYVKQANPIKSGPKRVLILGASSGFGLAARIALTFGGAQADTIGVSFERAPSETQTGSAGYYNNLFFKQHAEQAGRIAVNLEGDVFSVDMREQVIEAIETYFEGEVDLIIYSIASGMRRKPRSEKADPEFWRSAIKPIGEAVSGATLLLENDTWIETTLQPASEEEIEGTLRVMGGDDWENWIDTLINAESLAEGCKTIAFSYMGPDVTHPIYLDGTLGRAKIDLHQTSHALNLKLANFDGGAYAVVCKALVTKASVFIPGLSPYLLALYQVMKNKGTHEGCIEQMQRLFSDKLYGHSRIPLDSERLIRMDDWEMNPDTQVQVRERLQQMNASNFQQLGDYAGFKREFMQLNGFEFDQIDYSQSV | not soluble
15 | MQNNDFRTGSGSLKGSSTGVLKQFLFENVFICRIGVIKSFDFETQKGVVTIKEYEGLEISTCSISNFNFDLTAEDEVILLQSNFNIFQESDNNHFDKNYFYILSVLNPKKIGIRLDQFELSVQELGAQSENIKFKAKKLIIDVDNIEIKGNLKINGTKFENHMHSSGTLTYVNSSGVPTTTTGKTGPIA | soluble
16 | MELSPAERQLLLAHRLAVFDGCVVYDAQPPVSAEHVQRLAEGLAGPIPEDLLRLWRTCFGGRLGYDLEVDYDGHRHPFSFSELFYPDSDGYHDLWGWIEHERELAAEAAAEEGRDWNGKLAYLPFGGFEYLERLYVCVEPGPEHGAVIAWSHGLPPAWAGRLHQDSVTRLADDVGGLFRLLSFEQDPFDAENACGVADELLEALDALEAAGEPGKALKGRLEVLLRQRILDWRPALADGSLAAEPRLRQLALAEAAQDGDIDLLQRLRDAGCDFAETLRGRGGVLEACLARGRLEAARWLLDQGVAVHQDSLQIGAAHLDAVLAERLLRLGAISDPNTVLLALQYGDADAARIMARPLLEESPARANALRLALASRAERERSDARRVRSGKMGSNRSPDDYLALAERLERFLAELPG | not soluble
17 | MKKVFDVWDVETAKRFLEVIRNETIYYPVLIALHTGMRAGEIVSLKWYDVNFEARIISVVKSVRNNRGLKTSDVKTKTSKRSVYINDVLFSELKNLYETIKPKPDDFVCPRLPTGNLTVGYLSKRFKLLVKRYNFPVIRFHDLRHTFATLMLSLGVNTKIVAEILGHSDIKLTADTYSHVLPTMQESAMKEFSKLWKLEHHHHHH | not soluble
18 | QFLSGQLSIKLWFDKVGHQLIVTILGAKDLPSREDGRPRNPYVKIYFLPDRSDKNKRRTKTVKKTLEPKWNQTFIYSPVHRREFRERMLEITLWDQARVREEESEFLGEILIELETALLDDEPHWYKLQ | soluble
19 | MGSDKIHHHHHHMFYQLYELNHAALQPARLYADAVRMFYSNPLNPIAHTHWGRSVAAGAELFERTTRRYGKPAFGLDKTVVDWKSVEVTEKTVWSKPFCNLVRFERAMPAGRKPDPKLLIVAPMSGHYATLLRGTVEAMLPYADVHITDWVDARMVPLVDGSFDLDDYIDYIIEMFHALGPDTHVMAVCQPSVPVLAAVALMEAKGDPFVPSTMTLMGGPIDTRRNPTAVNLLAEEKGIDWFRDNVVMRAPWPVPGFGREVYPGFLQLSGFMSMNLDRHIIAHKDFFMHLVKNDGDNAEKHRDFYDEYMAVMDLTAEFYLQTVDTVFVRHALPKGEMKHRGAAIDTSAIRNVALFTVEGENDDISGLGQTKAAQDLCINIPADKKAHYMQPAVGHYGVFNGSRFRSEIVPRIVDFITSYGRQNRVAVKPKLVRTAKR | not soluble
